Assay results published in article PMC5414288, “^99mTc-radiolabeled GE11-modified peptide for ovarian tumor targeting” (DARU Journal of Pharmaceutical Sciences, 2017).

What was measured:
Stability in human serum = assay type: in vitro ADME; settings: fresh human serum (100 μl to 20 μl reaction mixture), 37 °C, 4 h, acetonitrile/ethanol precipitation, RP-HPLC
Method: Serum stability of the peptide was also determined following addition of 100 μl of fresh human serum to 20 μl of the reaction mixture and incubation for 1 and 4 h at 37 °C. Plasma samples were then treated with 500 μl of a mixture of acetonitrile and ethanol (1:1), centrifuged (14,000 rpm, 6 min), filtered (0.22 μm) and degradation of the radiolabeled peptide was assessed in supernatant by RP-HPLC [24].

[1] = Biodistribution study in normal mice; assay type: in vivo; settings: normal female NMRI mice, 1 μg i.v., mean ± SD, n = 4
Method: Normal female NMRI mice (20–30 g, Mazandaran animal center institute, Sari, Iran) were used in this study and randomly divided into 3 groups of 4. 100 μL of the solution containing 1 μg of the radiolabeled peptide was intravenously injected to the tail vein of each mouse. Mice were euthanized through intraperitoneal injection of ketamine and xylazine at 1, 4 and 24 h after injection. Blood was collected from the heart after deep anesthesia by a syringe which had been washed with heparin. Thereafter, organ samples including; lungs, stomach, liver, kidneys, bone, muscle, salivary glands, heart, spleen and intestines were removed, weighted and the radioactivity of each sample was measured. The tissue uptake of all organs except intestine was calculated as percent of injected dose per gram tissue (% ID/g) and for the intestine was calculated as % ID of the whole sample.

[2] = system: SKOV3 human ovarian cancer xenografts; assay: Biodistribution study in nude mice bearing SKOV3 xenografts; assay type: in vivo; settings: female nude mice bearing SKOV3 xenograft, 1 μg i.v.; for Blood uptake / Bone uptake / Heart uptake / Intestine uptake / Kidney uptake / Liver uptake / Lung uptake / Muscle uptake / Spleen uptake / Stomach uptake / Tumor uptake / s.g & Th. (salivary gland and thyroid) uptake: mean ± SD
Method: The in vivo tumor-targeting of the radiolabeled peptide was studied in female nude mice bearing SKOV3 cancer xenografts. For tumor induction, 10 × 10^6 SKOV3 cells were subcutaneously injected into the right hind leg of nude mice and tumor was allowed to grow for about 4 weeks. In the day of experiment, the average tumor size was 0.63 ± 0.2 g and the mice were randomly divided into three groups of 4 mouse each. The mice were injected intravenously 1 μg of the radiolabelled peptide. At 1 h and 4 h after injection, the mice were sacrificed and the tumor and other tissues were dissected. Blocking experiment was also performed using three nude mice which were subjected to injection of the excess amount (500 μg/50 μl) of the unlabeled peptide 30 min before radioconjugate peptide injection.

[3] = 4 h p.i., blocked with excess unlabeled peptide (500 μg) 0.5 h before, n = 3

In the case of `CC[C@H](C)[C@H](NC(=O)[C@@H](NC(=O)[C@H](CC(N)=O)NC(=O)[C@H](CCC(N)=O)NC(=O)[C@@H]1CCCN1C(=O)[C@@H](NC(=O)[C@H](Cc1ccc(O)cc1)NC(=O)CNC(=O)[C@H](Cc1ccc(O)cc1)NC(=O)[C@H](Cc1c[nH]c2ccccc12)NC(=O)[C@H](Cc1c[nH]cn1)NC(=O)[C@H](Cc1ccc(O)cc1)NC(=O)[C@H](CO)NC(=O)[C@H](CO)NC(=O)[C@H](CO)NC(=O)c1ccc(NN)nc1)[C@@H](C)O)C(C)C)C(=O)O` [^99mTc-tricine-HYNIC-SSS-GE11, metal not drawn], the “Stability in human serum” value (Stability in human serum) is reported as 96%, the Blood uptake ([1]; 1 h p.i.) is reported as 0.84 ± 0.04 % ID/g and the Bone uptake ([1]; 1 h p.i.) is reported as 0.97 ± 0.14 % ID/g. The Heart uptake ([1]; 1 h p.i.) was 0.76 ± 0.16 % ID/g, the Kidney uptake ([1]; 1 h p.i.) was 24.5 ± 1.7 % ID/g and the Liver uptake ([1]; 1 h p.i.) was 2.88 ± 0.84 % ID/g. The Lung uptake ([1]; 1 h p.i.) was 1.14 ± 0.63 % ID/g, the Muscle uptake ([1]; 1 h p.i.) was 0.52 ± 0.14 % ID/g and the Spleen uptake ([1]; 1 h p.i.) was 0.61 ± 0.14 % ID/g. For the same compound, the Stomach uptake ([1]; 1 h p.i.) was 0.91 ± 0.27 % ID/g, the “s.g & Th. (salivary gland and thyroid) uptake” value ([1]; 1 h p.i.) was 0.87 ± 0.15 % ID/g and the Blood uptake ([1]; 4 h p.i.) was “less than 1 % ID/g”. The Bone uptake ([1]; 4 h p.i.) was 0.57 ± 0.2 % ID/g, the Heart uptake ([1]; 4 h p.i.) was 0.44 ± 0.18 % ID/g and the Kidney uptake ([1]; 4 h p.i.) was 17.5 ± 1.25 % ID/g. For the same compound, the Liver uptake ([1]; 4 h p.i.) was 2.05 ± 0.39 % ID/g, the Lung uptake ([1]; 4 h p.i.) was 0.68 ± 0.23 % ID/g and the Muscle uptake ([1]; 4 h p.i.) was 0.23 ± 0.11 % ID/g. The Spleen uptake ([1]; 4 h p.i.) was 0.41 ± 0.13 % ID/g, the Stomach uptake ([1]; 4 h p.i.) was 0.57 ± 0.15 % ID/g and the “s.g & Th. (salivary gland and thyroid) uptake” value ([1]; 4 h p.i.) was 0.46 ± 0.22 % ID/g. For the same compound, the Blood uptake ([1]; 4 h p.i., listed as 99mTc-Tricine-HYNIC-SSS-GE11) was 0.39 ± 0.11 % ID/g, the Blood uptake ([1]; 24 h p.i.) was 0.18 ± 0.05 % ID/g and the Bone uptake ([1]; 24 h p.i.) was 0.28 ± 0.05 % ID/g. For the same compound, the Heart uptake ([1]; 24 h p.i.) was 0.40 ± 0.2 % ID/g, the Kidney uptake ([1]; 24 h p.i.) was 3.55 ± 0.38 % ID/g and the Liver uptake ([1]; 24 h p.i.) was 0.33 ± 0.069 % ID/g. For the same compound, the Lung uptake ([1]; 24 h p.i.) was 0.47 ± 0.09 % ID/g, the Muscle uptake ([1]; 24 h p.i.) was 0.19 ± 0.05 % ID/g and the Spleen uptake ([1]; 24 h p.i.) was 0.20 ± 0.06 % ID/g. The Stomach uptake ([1]; 24 h p.i.) was 0.32 ± 0.19 % ID/g, the “s.g & Th. (salivary gland and thyroid) uptake” value ([1]; 24 h p.i.) was 0.36 ± 0.12 % ID/g and the Blood uptake ([2]; 1 h p.i., n = 4) was 2.53 ± 0.51 % ID/g. It also gave a Bone uptake ([2]; 1 h p.i., n = 4) of 1.91 ± 0.53 % ID/g, a Heart uptake ([2]; 1 h p.i., n = 4) of 2.40 ± 0.96 % ID/g and an Intestine uptake ([2]; 1 h p.i., n = 4) of 8.38 ± 4.11 % ID/g. It also gave a Kidney uptake ([2]; 1 h p.i., n = 4) of 64.95 ± 7.81 % ID/g, a Liver uptake ([2]; 1 h p.i., n = 4) of 6.93 ± 0.95 % ID/g and a Lung uptake ([2]; 1 h p.i., n = 4) of 3.39 ± 0.64 % ID/g. The Muscle uptake ([2]; 1 h p.i., n = 4) was 0.99 ± 0.21 % ID/g, the Spleen uptake ([2]; 1 h p.i., n = 4) was 2.86 ± 0.17 % ID/g and the Stomach uptake ([2]; 1 h p.i., n = 4) was 2.65 ± 0.66 % ID/g. For the same compound, the Tumor uptake ([2]; 1 h p.i., n = 4) was 2.33 ± 0.67 % ID/g, the “s.g & Th. (salivary gland and thyroid) uptake” value ([2]; 1 h p.i., n = 4) was 2.52 ± 0.82 % ID/g and the “Tumor/Blood Ratio” value ([2]; 1 h p.i., n = 4) was 0.92. The “Tumor/Bone Ratio” value ([2]; 1 h p.i., n = 4) was 1.2, the “Tumor/Muscle Ratio” value ([2]; 1 h p.i., n = 4) was 2.3 and the Blood uptake [2, 3] was 0.99 ± 0.18 % ID/g. The Bone uptake [2, 3] was 1.01 ± 0.11 % ID/g, the Heart uptake [2, 3] was 0.65 ± 0.1 % ID/g and the Intestine uptake [2, 3] was 3.83 ± 2.1 % ID/g. The Kidney uptake [2, 3] was 42.10 ± 4.39 % ID/g, the Liver uptake [2, 3] was 3.28 ± 0.93 % ID/g and the Lung uptake [2, 3] was 1.24 ± 0.12 % ID/g. The Muscle uptake [2, 3] was 0.51 ± 0.07 % ID/g, the Spleen uptake [2, 3] was 0.83 ± 0.1 % ID/g and the Stomach uptake [2, 3] was 1.16 ± 0.11 % ID/g. For the same compound, the Tumor uptake [2, 3] was 0.93 ± 0.10 % ID/g, the “s.g & Th. (salivary gland and thyroid) uptake” value [2, 3] was 0.89 ± 0.16 % ID/g and the “Tumor/Blood Ratio” value [2, 3] was 0.96. The “Tumor/Bone Ratio” value [2, 3] was 0.92, the “Tumor/Muscle Ratio” value [2, 3] was 1.86 and the Blood uptake ([2]; 4 h p.i., n = 4) was 1.43 ± 0.18 % ID/g. For the same compound, the Bone uptake ([2]; 4 h p.i., n = 4) was 1.29 ± 0.29 % ID/g, the Heart uptake ([2]; 4 h p.i., n = 4) was 1.56 ± 0.37 % ID/g and the Intestine uptake ([2]; 4 h p.i., n = 4) was 3.24 ± 0.9 % ID/g. It also gave a Kidney uptake ([2]; 4 h p.i., n = 4) of 57.90 ± 0.49 % ID/g, a Liver uptake ([2]; 4 h p.i., n = 4) of 4.64 ± 0.69 % ID/g and a Lung uptake ([2]; 4 h p.i., n = 4) of 1.79 ± 0.34 % ID/g. It also gave a Muscle uptake ([2]; 4 h p.i., n = 4) of 0.51 ± 0.14 % ID/g, a Spleen uptake ([2]; 4 h p.i., n = 4) of 1.49 ± 0.32 % ID/g and a Stomach uptake ([2]; 4 h p.i., n = 4) of 1.53 ± 0.16 % ID/g. The Tumor uptake ([2]; 4 h p.i., n = 4) was 1.66 ± 0.41 % ID/g, the “s.g & Th. (salivary gland and thyroid) uptake” value ([2]; 4 h p.i., n = 4) was 1.80 ± 0.21 % ID/g and the “Tumor/Blood Ratio” value ([2]; 4 h p.i., n = 4) was 1.17. The “Tumor/Bone Ratio” value ([2]; 4 h p.i., n = 4) was 1.3 and the “Tumor/Muscle Ratio” value ([2]; 4 h p.i., n = 4) was 3.42.
